Results as given in article PMC2191257.

Molecular target: t-Elf-1 (truncated Elf-1) (UniProt P32519 108-304)
Assay: EMSA

t-Elf-1 (truncated Elf-1), sequence (P32519 108-304): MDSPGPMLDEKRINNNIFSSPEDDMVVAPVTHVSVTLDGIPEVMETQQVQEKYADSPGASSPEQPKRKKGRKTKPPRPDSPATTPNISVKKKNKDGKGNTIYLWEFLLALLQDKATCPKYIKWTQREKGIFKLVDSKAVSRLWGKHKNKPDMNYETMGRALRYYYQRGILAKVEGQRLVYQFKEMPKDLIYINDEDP

B1: MSV LTR (dsDNA)
DNA 1: TCGGAGACGGAAGCGCGC
DNA 2: GCGCGCTTCCGTCTCCGA
**Q.** Does B1 bind?
**A.** binds
